These results are taken from US20110097300A1 (SUNNYBROOK HEALTH SCIENCES CENTRE, published 2011).

The target in this test is T1, Tie 2 of EaHy926 endothelial cells (UniProt Q02763 23-1124, limits assumed).
T1 construct: whole, on cells; also called Tek
In words: avidin agarose pull down from EaHy926 whole cell lysate, anti-Tie 2 immunoblot. As for the experimental part:
In this example, the ability of Vasculotide to bind the Tie 2 receptor, despite the engineered modifications, was tested using an in vitro pull down assay. In the pull down assay, a cell lysate of EaHy926 endothelial cells (which express high levels of Tie 2) was prepared in Phospho Lipase Cγ lysis buffer (50 mM Hepes buffer pH 7.5, 150 mM NaCl, 10% glycerol, 1% Triton X-100, 1.5 mM MgCl₂, 1.0 mM EGTA, 10 mM NaPPi, […], 2 mM Na₃VO₄, 1× aprotinin, 1× leupeptin and 1× PMSF). The whole cell lysate was mixed with either unclustered biotinylated Vasculotide or biotinylated irrelevant peptide. The biotinylated peptides then were isolated with avidin agarose and subsequently tested for their ability to precipitate Tie 2 via standard immunoblot analysis using anti-Tie 2 antibody.
Background: A western blot detects proteins with antibodies after separation by electrophoresis.

Where no end group is shown, it is not given here. Maleimide‑PEO2‑Biotin = EZ-link-PEO-maleimide-biotin, biotinylated PEG-maleimide moiety (29 angstrom)

T1 sequence (Q02763 23-1124 limits assumed): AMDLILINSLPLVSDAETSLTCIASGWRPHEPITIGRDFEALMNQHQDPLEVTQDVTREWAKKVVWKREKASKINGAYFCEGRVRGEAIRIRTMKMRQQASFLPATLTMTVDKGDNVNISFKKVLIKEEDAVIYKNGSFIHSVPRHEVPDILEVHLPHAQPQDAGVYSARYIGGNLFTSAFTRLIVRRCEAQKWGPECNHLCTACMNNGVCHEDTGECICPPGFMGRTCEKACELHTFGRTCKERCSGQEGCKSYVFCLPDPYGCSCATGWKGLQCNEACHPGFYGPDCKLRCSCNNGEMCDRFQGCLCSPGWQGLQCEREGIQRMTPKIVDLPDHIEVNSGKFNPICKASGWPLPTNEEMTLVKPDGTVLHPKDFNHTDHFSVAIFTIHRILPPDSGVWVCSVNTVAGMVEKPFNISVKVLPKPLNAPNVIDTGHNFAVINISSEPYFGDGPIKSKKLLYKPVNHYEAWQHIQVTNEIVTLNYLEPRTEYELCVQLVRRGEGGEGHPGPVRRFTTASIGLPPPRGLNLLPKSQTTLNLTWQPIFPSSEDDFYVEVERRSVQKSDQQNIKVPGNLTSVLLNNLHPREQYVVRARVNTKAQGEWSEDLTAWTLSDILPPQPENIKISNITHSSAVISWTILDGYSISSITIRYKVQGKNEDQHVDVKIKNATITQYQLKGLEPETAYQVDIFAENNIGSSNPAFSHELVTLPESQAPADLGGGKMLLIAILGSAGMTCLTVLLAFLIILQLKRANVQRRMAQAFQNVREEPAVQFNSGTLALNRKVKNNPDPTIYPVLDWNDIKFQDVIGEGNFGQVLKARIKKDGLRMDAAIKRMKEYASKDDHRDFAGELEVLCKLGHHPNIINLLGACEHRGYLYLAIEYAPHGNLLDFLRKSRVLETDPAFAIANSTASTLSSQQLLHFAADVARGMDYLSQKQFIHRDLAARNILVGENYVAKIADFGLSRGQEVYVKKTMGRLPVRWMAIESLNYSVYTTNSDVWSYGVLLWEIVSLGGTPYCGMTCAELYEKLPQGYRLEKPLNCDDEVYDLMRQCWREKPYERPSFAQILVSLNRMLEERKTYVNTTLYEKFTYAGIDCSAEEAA

B1: unclustered Vasculotide (biotinylated T7 peptide-PEG monomer) (peptide)
peptide: C(Maleimide‑PEO2‑Biotin)HHHRHSF-OH
notes: L-amino acids; monomer, not clustered with avidin; also called T7-biotin; non-clustered Vasculotide
B1: the binding result is recorded as “binds”.
